Results reported in patent publication US20250000936A1, “TREATMENT OF GEOGRAPHIC ATROPHY” (Apellis Pharmaceuticals, Inc., priority 2021, published 2025).
“And” between values parts separate entries of the source, which are not always exact repeats. Identical values can stand only once.

Assays:
[1] = test system: patients with geographic atrophy (GA) secondary to age-related macular degeneration (AMD); test: OAKS Phase 3 study: GA lesion growth in study eye by fundus autofluorescence; format: in vivo, human
Excerpt: This Example describes 12-month results from two Phase 3 multi-center, randomized, double-masked, sham-controlled studies (“DERBY” and “OAKS”) to compare the efficacy and safety of intravitreal APL-2 (pegcetacoplan, also referred to as “Study Drug” in this Example) therapy with sham injections in patients with geographic atrophy (GA) secondary to age-related macular degeneration (AMD).
To participate in the studies, subjects must have been diagnosed with GA of the macula secondary to AMD in the study eye. At screening, male and female subjects were required to fulfill all of the following inclusion criteria to be eligible for participation in the study. If both eyes met the inclusion criteria, the eye with the worst normal luminance visual acuity at the screening visit was designated as the study eye. If both eyes had the same visual acuity, the right eye was selected as the study eye. Ocular-specific inclusion criteria applied to the study eye only, unless otherwise specified.
The design of the DERBY and OAKS studies are schematically depicted in FIG. 2. […] As part of the screening process, the reading center evaluated FAF, OCT, Digital Color Fundus Photograph (DCFP), Near Infrared Reflectance (NIR), and fluorescein angiography (FA) to provide an objective assessment of subject eligibility. […]
Subjects were analyzed in the treatment arm assigned at randomization. […]

[2] = test system: patients with geographic atrophy (GA) secondary to age-related macular degeneration (AMD); test: DERBY Phase 3 study: safety; conditions: for Patients with new onset fellow eye eAMD: through 18 months
Protocol: All randomized subjects returned every month to the clinical site for assessments and additional pegcetacoplan or sham injections according to their randomization scheme until Month 12. From Month 12 onwards, subjects return to the clinical site based on their randomized treatment schedule (monthly or EOM) and follow the treatment regimen and assessments outlined in the Visit Schedule until Month 24. Safety was assessed throughout the study by a number of evaluations including: monitoring of AEs, preinjection and postinjection monitoring, blood and urine samples collected, physical examination, vital signs, and follow-up phone calls. Blood samples were also be collected for anti-therapeutic antibodies, genotyping, and clinical repository (if the subject consented to this portion).
The Safety set consisted of all subjects randomized who received at least one injection of pegcetacoplan or sham. Subjects were analyzed according to the actual treatment received. […] This population was used for all safety analyses.

[3] = PEOM (every other month), 12 months
[4] = PEOM (every other month), 18 months
[5] = PEOM (every other month), N=208

Poly(oxy-1,2-ethanediyl), α-hydro-ω-hydroxy-, 15,15′-diester with N-acetyl-L-isoleucyl-L-cysteinyl-L-valyl-1-methyl-L-tryptophyl-L-glutaminyl-L-α-aspartyl-L-tryptophylglycyl-L-alanyl-L-histidyl-L-arginyl-L-cysteinyl-L-threonyl-2-[2-(2-aminoethoxy) ethoxy]acetyl-N^6-carboxy-L-lysinamide cyclic (2->12)-(disulfide) [pegcetacoplan]
reduction in GA lesion growth versus sham ([1]; distance ≤250 microns, every other month, p=0.0008): 19%
reduction in GA lesion growth versus sham ([1]; lesion distance to foveal center point >250 microns, monthly, p=0.0012): 30%
All TEAEs, Total events, M [2, 3]: 600
All TEAEs, patients [2, 3]: 155 (74.5%) n (%)
Cases of MNV (FA) detected by reading center but not reported by Investigator as AE [2, 3]: 1
Non-ocular TEAEs, Patients [2, 3]: 110 (52.9%) n (%)
Non-ocular TEAEs, events M [2, 3]: 339
Ocular TEAE in study eye Vitreous floaters, events M [2, 3]: 5
Ocular TEAE in study eye Vitreous floaters, patients [2, 3]: 4 (1.9%) n (%)
Ocular TEAEs in study eye, Patients [2, 3]: 91 (43.8%) n (%) and 91 (43.8) n (%)
Ocular TEAEs in study eye, events M [2, 3]: 162
Serious ocular TEAE Dry AMD, patients [2, 3]: 0 n (%)
Serious ocular TEAE Endophthalmitis, patients [2, 3]: 0 n (%)
Serious ocular TEAE Macular hole, patients [2, 3]: 0 n (%)
Serious ocular TEAE Optic ischemic neuropathy, patients [2, 3]: 0 n (%)
Serious ocular TEAE Papilledema, patients [2, 3]: 0 n (%)
Serious ocular TEAE Retinal detachment, patients [2, 3]: 0 n (%)
Serious ocular TEAE Vitritis, patients [2, 3]: 0 n (%)
Serious ocular TEAEs in the study eye, patients [2, 3]: 0 n (%)
Sum of investigator-determined eAMD and reading center cases not reported by investigators [2, 3]: (3.8%)
Sum of investigator-determined eAMD and reading center cases not reported by investigators ([2]; PEOM (every other month), 12 months, count): 8
All TEAEs, Total events, M [2, 4]: 835
All TEAEs, patients [2, 4]: 171 (82.2%) n (%)
Non-ocular TEAEs, M [2, 4]: 495
Non-ocular TEAEs, Patients [2, 4]: 132 (63.5%) n (%)
Ocular TEAEs in study eye, M [2, 4]: 216
Ocular TEAEs in study eye, Patients [2, 4]: 99 (47.6%) n (%)
Discontinued study prior to Month 12, reason Adverse Event [2, 5]: 4 (1.9%) n (%)
Discontinued study prior to Month 12, reason Death [2, 5]: 0 n (%)
Discontinued study prior to Month 18, reason Adverse event [2, 5]: 4 (1.9%) n (%)
Discontinued study prior to Month 18, reason Death [2, 5]: 4 (1.9%) n (%)
Patients with new onset fellow eye eAMD ([2]; PEOM (every other month), 166 patients without baseline fellow eye CNV): 8 (4.8%) n (%)
All TEAEs, Total events, M ([2]; PM (monthly), 12 months): 708
All TEAEs, patients ([2]; PM (monthly), 12 months): 158 (76.7%) n (%)
Cases of MNV (FA) detected by reading center but not reported by Investigator as AE ([2]; PM (monthly), 12 months): 0
Non-ocular TEAEs, Patients ([2]; PM (monthly), 12 months): 127 (61.7%) n (%)
Non-ocular TEAEs, events M ([2]; PM (monthly), 12 months): 396
Ocular TEAE in study eye Vitreous floaters, events M ([2]; PM (monthly), 12 months): 22
Ocular TEAE in study eye Vitreous floaters, patients ([2]; PM (monthly), 12 months): 18 (8.7%) n (%)
Ocular TEAEs in study eye, Patients ([2]; PM (monthly), 12 months): 100 (48.5%) n (%)
Ocular TEAEs in study eye, events M ([2]; PM (monthly), 12 months): 227
Serious ocular TEAE Dry AMD, patients ([2]; PM (monthly), 12 months): 0 n (%)
Serious ocular TEAE Endophthalmitis, patients ([2]; PM (monthly), 12 months): 0 n (%)
Serious ocular TEAE Macular hole, patients ([2]; PM (monthly), 12 months): 0 n (%)
Serious ocular TEAE Optic ischemic neuropathy, patients ([2]; PM (monthly), 12 months): 0 n (%)
Serious ocular TEAE Papilledema, patients ([2]; PM (monthly), 12 months): 0 n (%)
Serious ocular TEAE Retinal detachment, patients ([2]; PM (monthly), 12 months): 0 n (%)
Serious ocular TEAE Vitritis, events M ([2]; PM (monthly), 12 months): 1
Serious ocular TEAE Vitritis, patients ([2]; PM (monthly), 12 months): 1 (0.5%) n (%)
Serious ocular TEAEs in the study eye, events M ([2]; PM (monthly), 12 months): 1
Serious ocular TEAEs in the study eye, patients ([2]; PM (monthly), 12 months): 1 (0.5%) n (%)
Sum of investigator-determined eAMD and reading center cases not reported by investigators ([2]; PM (monthly), 12 months): (6.8%)
Sum of investigator-determined eAMD and reading center cases not reported by investigators ([2]; PM (monthly), 12 months, count): 14
All TEAEs, Total events, M ([2]; PM (monthly), 18 months): 993
All TEAEs, patients ([2]; PM (monthly), 18 months): 170 (82.5%) n (%)
Non-ocular TEAEs, M ([2]; PM (monthly), 18 months): 567
Non-ocular TEAEs, Patients ([2]; PM (monthly), 18 months): 148 (71.8%) n (%)
Ocular TEAEs in study eye, M ([2]; PM (monthly), 18 months): 308
Ocular TEAEs in study eye, Patients ([2]; PM (monthly), 18 months): 118 (57.3%) n (%)
Discontinued study prior to Month 12, reason Adverse Event ([2]; PM (monthly), N=206): 1 (0.5%) n (%)
Discontinued study prior to Month 12, reason Death ([2]; PM (monthly), N=206): 5 (2.4%) n (%)
Discontinued study prior to Month 18, reason Adverse event ([2]; PM (monthly), N=206): 3 (1.5%) n (%)
Discontinued study prior to Month 18, reason Death ([2]; PM (monthly), N=206): 6 (2.9%) n (%)
Patients with new onset fellow eye eAMD ([2]; PM (monthly), 167 patients without baseline fellow eye CNV): 4 (2.4%) n (%)
patients with study eye investigator-determined new-onset exudative AMD ([2]; every other month, month 18, 11/208 patients): 5.3%
patients with study eye investigator-determined new-onset exudative AMD ([2]; monthly, month 18, 24/206 patients): 11.7%
